Results as given in patent publication US20220281959A1 (published 2022).
Positions count from the first letter of the chain named. Ends that are not written are not given here.

B1: anti-PEP3 mAb 5E12 (antibody, V domains shown)
VH: QIQLVQSGPELKKPGETVKISCKASGYTFRTYGMSWVKQAPGKGLKWMGWINTYSGVPRYVDDFKGRFALSLETSASTAYLQINNLKSEDTATYFCVREGYSYYGSSFHTMDYWGQGTSVTVSS
VL: DIQMTQTPLTLSVTIGHPASISCKSSQSLLHTNGKIYLNWLLQRPGQSPKRLIYLVSKLDSGVPDRFSGSGSGTDFTLKISRVEAEDLGVYYCLQSTHFPQTFGGGTKLEIK
B2: anti-PEP3 mAb 15B4 (antibody, V domains shown)
VH: QVQLQQSGPELVRPGTSVKISCKAPGYSFTSHWMQWLRQRPGQGLEWIGEIFPGSGKTYYNEKFKDKATLTADTSSTTVYMQFSSLTSEDSAVYFCASDYDGGDYWGQGTTLTVSS
VL: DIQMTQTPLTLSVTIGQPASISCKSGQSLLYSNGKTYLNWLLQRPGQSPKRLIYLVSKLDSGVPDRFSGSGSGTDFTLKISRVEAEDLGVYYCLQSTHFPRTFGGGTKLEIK
B3: anti-PEP3 mAb 3A2 (antibody, V domains shown)
VH: QVQLQQPGAELVKPGASVKLSCKASGYIFTNYWMHWVRQRPGQGPEWIGMIHPNRGDLHYSEKFNNKATLTVDKSSSTAYMQLNSLASEDSAVYFCARAGLGVFDYWGQGSTLTVSS
VL: DVVMTQTPLSLPVSLGDQVSMSCRSSQSIEHSNRNTYLEWYLHKPGQAPQLLIYGVSNRFTGVPDRFSGSGSGTDFTLKISRVEAEDMGVYHCLQGTHVPFTFGSGTKLEIK
B4: anti-PEP3 mAb 8D5 (antibody, V domains shown)
VH: QVQLQQPGAELIEPGTSVKLSCKASGYTFTTYWMHWVKQRPGQGLEWIGMIHPNSGDTFYNENFKNKATLTVDISSSTVYMELSSLTSEDSAVYSCVKAGTGALDYWGQGTTLTVSS
VL: DVVMTQTPLSLPVSLGDQASISCRSSQSIVHSNRYTYLEWYLQRPGQSLKLLIYGVSNRFSGVPDRFSGSGSGTDFILKISRVEAEDMGVYYCFQGTHVPFTFGSGTKLEIK
B5: anti-PEP3 gp41 mAb 4G1 (antibody, V domains shown)
VL: B4 VL with P12C, S25T, R44K, S48P, V56I, S57A, I77T, F94L
V domain: QVQLQQPGAELVKPGASVKLSCKASGYIFRNYWMHWVKQRPGQGLEWIGMIHPNSDITHYNEKFKNRATLTVDKSSSTAYMQLNSLTSEDSAVYYCARGGLGVFDYWGQGTALRVSS
B6: anti-PEP3 mAb 9B12 (antibody, V domains shown)
VH: QVQLQQSGPELVKPGASVKISCKASGYGFSDSWMNWVKQRPGKGLDWIGRIYPGDGDTDYNGKFKDKATLTADKSSTTAYMQLSSLTSEDSAVYFCAYLGHWGQGTLVTVSA
VL: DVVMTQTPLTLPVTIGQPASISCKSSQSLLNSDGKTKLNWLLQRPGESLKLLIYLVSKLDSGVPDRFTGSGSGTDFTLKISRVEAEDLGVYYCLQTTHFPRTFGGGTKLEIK

Molecular target: T1, HIV-1 MN gp41 recombinant protein produced in E. coli (565-771Delta642-725) (HIV-1 MN)
Experiment: ELISA

Binder | EC50 [µg/mL]
B1 | > 13
B2 | 0.3
B3 | 0.02
B4 | 0.02
B5 | 0.005
B6 | > 30

Molecular target: T2, BSA-PEP3 peptide (also: conjugated to BSA)
T2 peptide: PWNASWSNKSLDDIW
Experiment: ELISA

Binder | EC50 [µg/mL]
B1 | 0.015
B2 | 0.02
B3 | 0.007
B4 | 0.006
B6 | 0.02

Molecular target: T3, HXB2 gp41 recombinant protein (a.a. 534-681) (UniProt P04578 534-681)
Experiment: ELISA

Binder | EC50 [µg/mL]
B1 | > 20
B2 | 0.12
B3 | 0.0044
B4 | 0.0005
B6 | > 137

Molecular target: T4, HIV-1 MN gp41 (a.a. 542-666) produced in S2 cells (UniProt P05877 542-666)
Experiment: ELISA

Binder | EC50 [µg/mL]
B1 | > 19
B2 | > 11
B3 | 0.78
B4 | 0.09
B6 | > 700

Molecular target: T2, BSA-PEP3 peptide
Experiment: ELISA
Remark: another data set of the same source

Binder | EC50 [µg/mL]
B1 | 0.015
B2 | 0.02
B3 | 0.007
B4 | 0.006
B6 | 0.02

Molecular target: T3, HXB2 gp41 recombinant protein (a.a. …)
Experiment: ELISA
Remark: another data set of the same source

Binder | EC50 [µg/mL]
B2 | 0.12
B3 | 0.0044
B4 | 0.0005

Molecular target: T4, HIV-1 MN gp41 (a.a. 542-666) produced …
Experiment: ELISA
Remark: another data set of the same source

Binder | EC50 [µg/mL]
B3 | 0.78
B4 | 0.09

Molecular target: T3, HXB2 gp41 recombinant protein (a.a. …)
Experiment: sandwich ELISA; capture Ab

Binder | EC50 [µg/mL]
B2 | 0.355
B3 | 0.0098
B4 | 0.018

Molecular target: T1, HIV-1 MN gp41 recombinant protein …
Experiment: ELISA
Remark: another data set of the same source

Binder | EC50 [µg/mL]
B1 | > 13
B2 | 0.3
B3 | 0.02
B4 | 0.02
B5 | 0.005
B6 | > 30

Molecular target: T3, HXB2 gp41 recombinant protein (a.a. …)
Experiment: ELISA; curve not in saturation

Binder | EC50 [µg/mL]
B1 | > 20
B6 | > 137

Molecular target: T4, HIV-1 MN gp41 (a.a. 542-666) produced …
Experiment: ELISA; curve not in saturation

Binder | EC50 [µg/mL]
B1 | > 19
B2 | > 11
B6 | > 700
